In paper PMC5772613, “Phosphorylation induced cochaperone unfolding promotes kinase recruitment and client class-specific Hsp90 phosphorylation” (Nature Communications, 2018):

B1: Full-length human Cdc37 [human] / Catalytic domain of bRaf [not stated] (parent complex)
chain 1: MVDYSVWDHIEVSDDEDETHPNIDTASLFRWRHQARVERMEQFQKEKEELDRGCRECKRKVAECQRKLKELEVAEGGKAELERLQAEAQQLRKEERSWEQKLEEMRKKEKSMPWNVDTLSKDGFSKSMVNTKPEKTEEDSEEVREQKHKTFVEKYEKQIKHFGMLRRWDDSQKYLSDNVHLVCEETANYLVIWCIDLEVEEKCALMEQVAHQTIVMQFILELAKSLKVDPRACFRQFFTKIKTADRQYMEGFNDELEAFKERVRGRAKLRIEKAMKEYEEEERKKRLGPGGLDPVEVYESLPEELQKCFDVKDVQMLQDAISKMDPTDAKYHMQRCIDSGLWVPNSKASEAKEGEEAGPGDPLLEAVPKTGDEKDVSV
chain 2: ITVGQRIGSGSFGTVYKGKWHGDVAVKMLNVTAPTPQQLQAFKNEVGVLRKTRHVNILLFMGYSTKPQLAIVTQWCEGSSLYHHLHIIETKFEMIKLIDIARQTAQGMDYLHAKSIIHRDLKSNNIFLHEDLTVKIGDFGLATVKSRWSGSHQFEQLSGSILWMAPEVIRMQDKNPYSFQSDVYAFGIVLYELMTGQLPYSNINNRDQIIFMVGRGYLSPDLSKVRSNCPKAMKRLMAECLKKKRDERPLFPQILASIELL

Variants of: B1
Assay: ITC; read off a plot

Variant	Kd [nM]
chain 1 MVDESVWDHIEVSDDEDETHPNIDTASLFRWRHQARVERMEQFQKEKEELDRGCRECKRKVAECQRKLKELEVAEGGKAELERLQAEAQQLRKEERSWEQKLEEMRKKEKSMPWNVDTLSKDGFSKSMVNTKPEKTEEDSEEVREQKHKTFVEKYEKQIKHFGMLRRWDDSQKYLSDNVHLVCEETANYLVIWCIDLEVEEKCALMEQVAHQTIVMQFILELAKSLKVDPRACFRQFFTKIKTADRQYMEGFNDELEAFKERVRGRAKLRIEKAMKEYEEEERKKRLGPGGLDPVEVEESLPEELQKCFDVKDVQMLQDAISKMDPTDAKYHMQRCIDSGLWVPNSKASEAKEGEEAGPGDPLLEAVPKTGDEKDVSV [chain 1 Y4E, chain 1 Y298E]	~2100
chain 1 MVDESVWDHIEVSDDEDETHPNIDTASLFRWRHQARVERMEQFQKEKEELDRGCRECKRKVAECQRKLKELEVAEGGKAELERLQAEAQQLRKEERSWEQKLEEMRKKEKSMPWNVDTLSKDGFSKSMVNTKPEKTEEDSEEVREQKHKTFVEKYEKQIKHFGMLRRWDDSQKYLSDNVHLVCEETANYLVIWCIDLEVEEKCALMEQVAHQTIVMQFILELAKSLKVDPRACFRQFFTKIKTADRQYMEGFNDELEAFKERVRGRAKLRIEKAMKEYEEEERKKRLGPGGLDPVEVYESLPEELQKCFDVKDVQMLQDAISKMDPTDAKYHMQRCIDSGLWVPNSKASEAKEGEEAGPGDPLLEAVPKTGDEKDVSV [chain 1 Y4E]	~1000
chain 1 MVDYSVWDHIEVSDDEDETHPNIDTASLFRWRHQARVERMEQFQKEKEELDRGCRECKRKVAECQRKLKELEVAEGGKAELERLQAEAQQLRKEERSWEQKLEEMRKKEKSMPWNVDTLSKDGFSKSMVNTKPEKTEEDSEEVREQKHKTFVEKYEKQIKHFGMLRRWDDSQKYLSDNVHLVCEETANYLVIWCIDLEVEEKCALMEQVAHQTIVMQFILELAKSLKVDPRACFRQFFTKIKTADRQYMEGFNDELEAFKERVRGRAKLRIEKAMKEYEEEERKKRLGPGGLDPVEVEESLPEELQKCFDVKDVQMLQDAISKMDPTDAKYHMQRCIDSGLWVPNSKASEAKEGEEAGPGDPLLEAVPKTGDEKDVSV [chain 1 Y298E]	~1900
